Assay results: US20240026407A1, “MODIFICATION OF SAPONINS” (GLAXOSMITHKLINE BIOLOGICALS SA, priority 2020, published 2024)

B1: 1005 (protein, listed as Enterococcus casseliflavus)
chain: MTKKWQATWIEPQQEPTRKEPPFSLADMFSGKKVVQDPPEERLLPPHYLKKIFTVENKSIKQASLTMTAHGIYQAKINGQAVSEAIFAPDYTSYTQYLQYQTYDVTHMLKEKNVWSVTLADGWYAGRVSVSGGSAQFGDRLGILGEIEIYYTDGTYEIIVTDEDFVSSHGKYVYSDLFIGEKQDLRLEKENWETDFDLTGFTKVSKADYGFDHLTPQRGPQVKRQEKLAAKSIWWEKDAVIVDFGQVIAGRVQLQIPLADGQEITIEHSEVLDREGHFFNNIVGRNKDQKDVFIGNGREACLEPDFTFHGFRYIKIDGLDVLPDKQSVWAYAIYSDMKATGSFTTSNQKINQLIENIQWSQKGNMLSIPTDCPQRERVGWTGDIQVFGPTATFFMDVYDFLGRWLDNVRLEQQADGQIVDYTPAPRDYFEGESLTGSLSSAGWGDAIVLLPWTLYQRYGKLEILVENYQAMKRWLSFSRKSAAGDKTDDKQYLWDTKFHFGDWMFPSFMIGEDAKGPMETAFVTKDLFGTAFLAHSSQLFAQISQLLDEEEENWSDFSNKVKAAFQKYYWRDDHLTADFQGSYVIALAFDLLDETASKAAAARLTELIIANNYCLDTGFLSIPYLLDVLCDYGYQELALKLLLQEECPSWLYEVNHGATTIWESWASIQPDGTVCDFSFNHYAFGCVGDWLVRRLAGLQVTEPGFTFFTISPLEQTAISSYHLNYTTAYGDIEIERSNDQFHLSVPQNTKAIFQYGETSKVLTSGKHHLTIKGEKIYE
B2: 1022 (protein)
chain: MRKSRSLGLGLVKYILIVVALVGCIQTSPTMDESAINHQAQTIYLRGGFNGWSTATAFDRTEQAGIYVAKTKITMGNHGFKLAPADWSFAWVVSAHENQLVELNKSYRLNTAGGEEDSLFIETRGLYQFTLDITQANQPKLLVKLLSADSAKTPPPHYGEMTSLEFNRFNGEKVEAVFSAKATNNGLREYVHSTTQSLRDPVPSYSRYQEDIAHPRVRSGNIAFDALFALAVDEMKLNSVEQIKDGNYNNGQAIDCSCFETGEKWNYVWTRDLSYAAHLSLAQFDAQRVENSLLFKVSNLRASAPISPFLAGNAPYTQIIQDTGSGGSWPVSTDRMTWAFGATALLANLAEPQRSQFARKAFTALVNTIENDRLVAFDSHLGLYLGEQSFLDWREQSYASWIVDDLSSMSTAISLSTNAGHYQALVLAADLAGQLGDVPAAKKYKGWASALKNAINQHLWLEEKGLYSSLTSGHYHKVALEKFDWLGQSLAIVTGIASDEQARAILSSYPHGPMGAAVIFPQQPNIPVYHNRAIWPFVTAYGLNAAVKGKNVAVTQAALDTLTRAAALNLSNMENLEWLSSEPILLDKTHPQLSGPVINSKRQLWSVAAYLNLVSNTIFGAQPSQQGIEFRPFIPKSFKDQWFKHSQVINLINYQWRGKQFDLQLKFAPSNKKFGAYVVNRVKVNGLAHSGVLVEQALKQHNLIEIELVLDNTVDNNINLVDSEPLAFDPLVYAPLEPKLSVVAKANDYVIQIEDKGNANLTSAAIEYEIYRDGNLLTRVPAGAGVSQWLDKGQAQQAHCYAVAARFVKSQNQSHLSEVVCMGERMQIPVADQRIQSNKPKKILGEQLIFSQWGEADDTLQVHFSIDQPGKYAIQFNYHNPANAINLGISNGVKWLEVVNSSNQQSVKQAAVQFPHTRVDKTQFGDNLSTPVEIELAAGDYKLHLHDFYNMSYLQSNKTYTAAGGMKGISNKFDIYAVTFVLLPLK
modifications: Catenovulum agarivorans
B3: 994 (protein, listed as Catenulispora acidiphila)
chain: MLIRRRFATALALILAFAAVTPVASAAPSPSLSLSASSAGTEVSVSALQTDATTNPLGIDDPHPSLSWKLASQINGEYQSAYRIVVAGSQSDASAGVGSVWDSGEVASGNSVGIAYGGPALASEKTYYWAVQIWDEHGTASGWSAPAQWEMGLLNPGDWQGAQWISPTSASAASPLLRKDFTLAKPVARARAYVFGLGFYELHLNGGKVGDRVLEPASTPYAQRDLYAAYDVTGTVKQGGNAVGLWLGNGYDANFSQYGFRWLGPKQAIVLIDVTFSDGTHQAVTSDGSWTWSPSPITADGIYNGESYDARMVQPGWDAAGFSASSLQPVRTVAAPGGSLVADAMPPIRVTQTLNAVKLTSPSPGVYVYDFGQNVSGWEVLRTQGAAGSTVKMQTAEDLLANGTIDTTTNRNALSTDSYTLAGTGSTETYEPRFTYHGFRYVEVTGDPQTPVVSSLQARVVHADLASTSTFSSSDATLNQIWQNNQRTMLNNQMSTPTDNPVRDERTPPGMDVQAYHDASTAEFGMDTYYANYLRDMPPGTALPSDGGNAQQPDMGGDQVTLAWTLYQQYGDIATLAAMYPLMKKFVDTNATNVPGHIWSTGFGDWCPPDHSSNANGGMGNPSAGACTSEVPIVNTALSYLQASDVAKAATALGQAGDAAHYTQLAGDIANAFNAAFLNSDHASYGDGRETTSILPLAFGMVPAADVPAVGARLVDTVVRGNGGHLDTGIFGTRYLMDALAGIGRTDLAMTVLDQGTYPGYGFEIGKGATTDWEEWTYASSMESHDHAMFAGINASFASRLAGIEPTGPGYSTVSIAPQIPAGLQSVAASVSTVRGTVASSWSVSGGKVTMDVTVPVGATASVRVPSFGQGSVTTVSPAGAGAVQVSAGGTSSTYTVGSGSWEFTGSLVPASSTVLPGTWTQCAVETGNCSVAGTETVAFGAQGKYDYATVSGTVACSNTVFGDPDSGVSKACYAEPAPATTPGAWQQCAAETATCSFAGTETVAFGAQGKYTYATLTGGTPCTTTIFGDPAYGIPKSCFIEAPPPAATTWIPCAAETATCTLTASRDVAFGAHGDYAYRTANAPTTCTNAVFGDPAPGAVKACYLQ
B4: 1070 (protein, listed as Thermobaculum terrenum)
chain: MRKIIAQDPFTRNDPGIPWDQRGQWPASWVAARRLPSPPYVVAYRLAFVLPQAATATLHVTADERYELFLDSERVGRGSERGDADHWFYETYELELPAGPHTLVARVWSLGPLAPYAQLSVRHGFLLAAEPPLTEALSTGIAPWEAKRLEGYSWVNPSPAWGTGGNIALSAAQFPWGVERGEGDGWEPVEVVERAVGRLMALEAPPQHLLRPATLPAMLEVPIRVGRVRHVSAPSSEEVSSLPIRAEQALDEPEWQAMLEGRSSVTVPPHTTRRVIIDLEDYYCAYPELVTSGGEGGAVRLHWAESLYEDGRGRHKGDRDAIEGKYFRGVGDVFLPDGGDSRRFDTLWWQAGRYLELLVRTADSPLTVASLRLRETRYPLEMESAIATGDPDLDATIPLMVRAMQMCSHETYMDCPYYEQLMYAGDTRLEALVTYVMTRDDRLPRKALRMFDASRLASGLTQARYPSRVRQIIAPFALWWVAMVCDYAYWRPGTEYVRELMPGVRATMEAFERWRGSDGLLESPEGWNVTDWVPEWPAGIPPEGEWGRSGLLNWHLALVTRMVADLERALGNPQMAEHFGARAREIADAALRAFWVPSRGLMADDTACQRFSEHTQCLAILSGLLPPAIEEQVGRSLLEARDIARTTIYFSHYLFEACRKLGRVDVLLARLGLWRELVDKGLRTTIEAPEPTRSDCHAWGAHPLYHLFATFLGIRPAGLGFSAVEIAPQPAALRRLEGRLVHPRGDVWVAMEVDEEQIRARVRLPEAVPGVFCWGSRRVPLRPGEETDVVLPRAQG

Columns and labels:
Type in all cases: biochemical, Quillaja saponaria
[1] = Experiment 6-1: specificity of rhamnosidases towards other rhamnose residues (C3 saccharide rhamnose, C28 saccharide rhamnose); details: TBE 2%, pH 7.5, 30 degC, 18 h; LCMS/MS; negative controls 0.18, 0.17
[2] = Experiment 6-1: screening of rhamnosidases for derhamnosylation of saponins in treated bark extract (2%), desglucosyl-QS-17 2134 to QS-21 1988 (PAR %); details: TBE 2%, pH 7.5, 30 degC, 18 h; TIC peak area ratio percent, LCMS/MS; negative controls 2.719, 2.158
[3] = Experiment 6-1: screening of rhamnosidases for derhamnosylation of saponins in treated bark extract (2%), QS-17 2310 to QS-18 2164 (PAR %); details: TBE 2%, pH 7.5, 30 degC, 18 h; TIC peak area ratio percent, LCMS/MS; negative controls 3.061, 2.429
[4] = Experiment 6-1: screening of rhamnosidases for derhamnosylation of saponins in treated bark extract (2%), QS-17 2296 to QS-18 2150 (PAR %); details: TBE 2%, pH 7.5, 30 degC, 18 h; TIC peak area ratio percent of rhamnosylated starting saponin to derhamnosylated product, LCMS/MS; negative controls 4.876, 5.225

Molecule	ratio PP/QS-21 [1]	Peak75 (PAR %) [2] [%]	Peak57 (PAR %) [3] [%]	QS-17 (PAR %) [4] [%]
B1	0.17	2.767	2.799	5.166
B2	0.15	2.368	2.882	5.190
B3	0.16	2.147	3.300	5.177
B4	0.18	2.275	3.311	5.168
